Laboratory results from patent US20130171677A1 (BOARD OF SUPERVISORS OF THE UNIVERSITY OF LOUISIANA SYSTEM, published 2013).

Target: the molecule itself
Assay: size exclusion chromatography of purified recombinant TeCpcS (complex 53.0 kDa against ~24.0 kDa calculated for HT-TeCpcS)
Procedure: In order to determine the molecular mass of TeCpcS in its native state, the purified, recombinant TeCpcS was subjected to size exclusion chromatography. The molecular mass of this complex was calculated to be 53.0 kDa, and the calculated molecular mass of HT-TeCpcS is ˜24.0 kDa.

B1: Bilin lyase CpcS from Thermosynechococcus elongatus BP1 (TeCpcS), His-tagged (enzyme)
chain: MCIGMDIRDFFAQSAGRWFSQRTSHHLAFKQTESGKSQLTIELLSVDDPAVIALCQQYDMDPAWAVCGARVSWDGTMEWDNEKHEGSTVLVPIMDQGSRMEGKLLREMGYAEKAPVAGRFSMGSDGALTLITEYETIYSEERLWFASPNLRLRTSILKRFGGFSMASFCSEIRLGVTQPANS
notes: also called HT-TeCpcS; CpcS-III; not shown: C-terminal His-tag from the pET22c construct used for crystallization and size-exclusion chromatography
B1: binds.
